Laboratory results published in publication PMC11470758.

T1: MBP-GlcR (MGlcR) (Paracoccus denitrificans) (UniProt A1BAC0)
T1 sequence: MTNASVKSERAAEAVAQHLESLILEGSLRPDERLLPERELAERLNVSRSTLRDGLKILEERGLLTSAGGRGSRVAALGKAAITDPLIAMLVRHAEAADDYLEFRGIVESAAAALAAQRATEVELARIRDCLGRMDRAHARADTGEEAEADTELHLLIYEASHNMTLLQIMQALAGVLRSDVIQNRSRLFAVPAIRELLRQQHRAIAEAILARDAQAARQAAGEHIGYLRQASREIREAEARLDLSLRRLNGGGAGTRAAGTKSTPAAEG

T2: MBP-GlcR (MGlcR) (Paracoccus denitrificans, UniProt A1BAC0 1-269)
T2 sequence: T1 sequence

B1: fragment #3 (dsDNA)
DNA 1: GTCCAGAAAAATACCGATTGACTAATGTGGTCTGAAAATTATACCAAGAATGCAGGGCAG
DNA 2: CTGCCCTGCATTCTTGGTATAATTTTCAGACCACATTAGTCAATCGGTATTTTTCTGGAC

What was measured:
[1] = target: T1, MBP-GlcR (MGlcR) (Paracoccus denitrificans); assay: EMSA; conditions: EMSA buffer, salt, pH and temperature not given in the material
[2] = target: T2, MBP-GlcR (MGlcR); assay: EMSA

Row | Molecule | binding [1] | binding result [2]
1 | CTTTCTAGATCACGCACGCGCCAGGATGCCCGCATCGGGCCGGGGCATGGCAATACCGGACAAGCTCTCCTCCCTTGGTCGAACGGCAGGCCCGTGTCCTGCCCTGCATTCTTGGTATAATTTTCAGACCACATTAGTCAATCGGTATTTTTCTGGACCGACACGCCCGTCCTGTGCTTACATGGCAGGGATCCGACAACCGCATGAGCGCCCATGACCAACGCATCCGTGAAATCCGAACGCGCCGCCGAGGCCGTGGCCCAGTGAGAATTCATATC (double strand) [pden4399-4400 intergenic sequence] | binds | 
2 | B1 |  | binds
